This note sets out measurements from PMC5085863 (The Biochemical journal, 2016).

By stoichiometry N is commonly meant a count of units in the complex or per binding partner.

Where two headings read alike, the source gives them in different places.

What all share (assay): FRET or BRET
Series [1] deals with the molecule itself.
Series [2] concerns the molecule itself. This is another data set of the same source.
Series [3] concerns the molecule itself. The source holds these as a separate data set.
Series [4] deals with the molecule itself. This is another data set of the same source.
Series [5] deals with the molecule itself. The source holds these as a separate data set.
Series [6] deals with the molecule itself. This is another data set of the same source.
Series [7] deals with the molecule itself. The source holds these as a separate data set.

B1: opsin tagged with the fluorescent proteins mTurquoise or SYFP2 (opsin-mTurquoise and opsin-SYFP2, co-expressed) (receptor, UniProt P15409 1-348, looked up)
chain: MNGTEGPNFYVPFSNVTGVVRSPFEQPQYYLAEPWQFSMLAAYMFLLIVLGFPINFLTLYVTVQHKKLRTPLNYILLNLAVADLFMVFGGFTTTLYTSLHGYFVFGPTGCNLEGFFATLGGEIALWSLVVLAIERYVVVCKPMSNFRFGENHAIMGVVFTWIMALACAAPPLVGWSRYIPEGMQCSCGIDYYTLKPEVNNESFVIYMFVVHFTIPMIVIFFCYGQLVFTVKEAAAQQQESATTQKAEKEVTRMVIIMVIFFLICWLPYASVAFYIFTHQGSNFGPIFMTLPAFFAKSSSIYNPVIYIMLNKQFRNCMLTTLCCGKNPLGDDDASATASKTETSQVAPA
Turning to B1, the “KD tetramer to higher order oligomers” value in series [1] was more than 1150 molecules/μm^2. Also, the results for the “stoichiometry N” value in series [1], in series [2] and in series [7] were not below 12, 4 and 2, respectively. The “tetramer to dimer ratio (ρ)” value in series [3] worked out at 484; in series [4], 0.401; in series [5] it was 1.08; in series [6] it was 1.79.
